From IntAct's records for PubMed 22531782

B1: E3 ubiquitin-protein ligase RNF8 (Homo sapiens), O76064 (parent)
chain: MGEPGFFVTGDRAGGRSWCLRRVGMSAGWLLLEDGCEVTVGRGFGVTYQLVSKICPLMISRNHCVLKQNPEGQWTIMDNKSLNGVWLNRARLEPLRVYSIHQGDYIQLGVPLENKENAEYEYEVTEEDWETIYPCLSPKNDQMIEKNKELRTKRKFSLDELAGPGAEGPSNLKSKINKVSCESGQPVKSQGKGEVASTPSDNLDPKLTALEPSKTTGAPIYPGFPKVTEVHHEQKASNSSASQRSLQMFKVTMSRILRLKIQMQEKHEAVMNVKKQTQKGNSKKVVQMEQELQDLQSQLCAEQAQQQARVEQLEKTFQEEEQHLQGLEIAQGEKDLKQQLAQALQEHWALMEELNRSKKDFEAIIQAKNKELEQTKEEKEKMQAQKEEVLSHMNDVLENELQCIICSEYFIEAVTLNCAHSFCSYCINEWMKRKIECPICRKDIKSKTYSLVLDNCINKMVNNLSSEVKERRIVLIRERKAKRLF

Variants of: B1
Settings: with chd4_human CHD4, Q14839
Sequence of chd4_human CHD4, Q14839 (Q14839 whole entry): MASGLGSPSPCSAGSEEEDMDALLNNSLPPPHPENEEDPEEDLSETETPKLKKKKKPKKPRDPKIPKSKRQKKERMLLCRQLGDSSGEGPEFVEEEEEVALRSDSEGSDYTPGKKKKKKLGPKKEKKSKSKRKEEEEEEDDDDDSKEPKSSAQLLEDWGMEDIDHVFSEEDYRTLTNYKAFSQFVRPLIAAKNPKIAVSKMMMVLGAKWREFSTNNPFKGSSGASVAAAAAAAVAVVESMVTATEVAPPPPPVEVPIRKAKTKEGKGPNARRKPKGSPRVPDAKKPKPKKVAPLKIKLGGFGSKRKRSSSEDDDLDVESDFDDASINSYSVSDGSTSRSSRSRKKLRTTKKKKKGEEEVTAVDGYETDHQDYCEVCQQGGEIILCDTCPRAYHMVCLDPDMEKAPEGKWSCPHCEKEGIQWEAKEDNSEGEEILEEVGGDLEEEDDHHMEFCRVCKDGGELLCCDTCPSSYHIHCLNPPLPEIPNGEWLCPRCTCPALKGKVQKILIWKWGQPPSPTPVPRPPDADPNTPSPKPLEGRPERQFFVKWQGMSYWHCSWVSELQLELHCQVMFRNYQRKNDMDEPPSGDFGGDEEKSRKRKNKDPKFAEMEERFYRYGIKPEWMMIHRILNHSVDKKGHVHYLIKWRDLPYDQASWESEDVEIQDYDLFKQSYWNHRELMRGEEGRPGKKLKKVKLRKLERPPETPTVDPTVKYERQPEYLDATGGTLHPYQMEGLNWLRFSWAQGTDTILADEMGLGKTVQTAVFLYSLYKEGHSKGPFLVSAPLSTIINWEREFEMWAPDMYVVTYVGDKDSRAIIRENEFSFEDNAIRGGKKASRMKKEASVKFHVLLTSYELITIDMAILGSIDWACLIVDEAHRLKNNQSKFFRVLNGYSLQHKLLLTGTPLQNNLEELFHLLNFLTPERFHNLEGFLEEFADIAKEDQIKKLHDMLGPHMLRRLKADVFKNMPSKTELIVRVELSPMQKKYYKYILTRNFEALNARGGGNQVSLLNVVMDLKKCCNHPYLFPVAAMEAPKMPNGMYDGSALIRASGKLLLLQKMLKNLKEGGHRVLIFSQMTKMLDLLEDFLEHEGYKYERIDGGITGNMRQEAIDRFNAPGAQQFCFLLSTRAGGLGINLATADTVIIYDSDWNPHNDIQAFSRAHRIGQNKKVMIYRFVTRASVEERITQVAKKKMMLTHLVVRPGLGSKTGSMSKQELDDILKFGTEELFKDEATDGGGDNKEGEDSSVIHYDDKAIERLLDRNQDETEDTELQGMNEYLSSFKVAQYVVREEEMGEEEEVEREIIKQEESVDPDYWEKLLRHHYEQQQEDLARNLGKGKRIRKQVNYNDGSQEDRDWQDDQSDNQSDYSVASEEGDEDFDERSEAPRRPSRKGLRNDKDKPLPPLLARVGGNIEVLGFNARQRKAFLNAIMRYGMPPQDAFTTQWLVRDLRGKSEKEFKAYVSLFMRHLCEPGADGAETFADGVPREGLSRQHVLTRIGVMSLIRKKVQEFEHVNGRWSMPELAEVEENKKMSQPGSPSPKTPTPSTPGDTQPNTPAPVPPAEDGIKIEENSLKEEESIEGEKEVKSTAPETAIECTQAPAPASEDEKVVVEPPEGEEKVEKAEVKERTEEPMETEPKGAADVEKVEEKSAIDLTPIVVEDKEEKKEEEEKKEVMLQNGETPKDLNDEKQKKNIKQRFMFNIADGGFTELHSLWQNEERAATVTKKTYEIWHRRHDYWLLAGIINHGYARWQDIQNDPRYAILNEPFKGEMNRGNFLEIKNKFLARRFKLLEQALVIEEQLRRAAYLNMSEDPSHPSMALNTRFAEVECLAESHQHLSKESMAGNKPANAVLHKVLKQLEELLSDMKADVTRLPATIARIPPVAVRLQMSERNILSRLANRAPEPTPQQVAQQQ

effect of a mutation on the interaction	Variant
increasing interaction	MGEPGFFVTGDRAGGRSWCLRRVGMSAGWLLLEDGCEVTVGRGFGVTYQLVSKICPLMISRNHCVLKQNPEGQWTIMDNKSLNGVWLNRARLEPLRVYSIHQGDYIQLGVPLENKENAEYEYEVTEEDWETIYPCLSPKNDQMIEKNKELRTKRKFSLDELAGPGAEGPSNLKSKINKVSCESGQPVKSQGKGEVASTPSDNLDPKLTALEPSKTTGAPIYPGFPKVTEVHHEQKASNSSASQRSLQMFKVTMSRILRLKIQMQEKHEAVMNVKKQTQKGNSKKVVQMEQELQDLQSQLCAEQAQQQARVEQLEKTFQEEEQHLQGLEIAQGEKDLKQQLAQALQEHWALMEELNRSKKDFEAIIQAKNKELEQTKEEKEKMQAQKEEVLSHMNDVLENELQSIICSEYFIEAVTLNCAHSFCSYCINEWMKRKIECPICRKDIKSKTYSLVLDNCINKMVNNLSSEVKERRIVLIRERKAKRLF [C403S]
increasing interaction	MGEPGFFVTGDRAGGRSWCLRRVGMSAGWLLLEDGCEVTVGAGFGVTYQLVSKICPLMISRNHCVLKQNPEGQWTIMDNKSLNGVWLNRARLEPLRVYSIHQGDYIQLGVPLENKENAEYEYEVTEEDWETIYPCLSPKNDQMIEKNKELRTKRKFSLDELAGPGAEGPSNLKSKINKVSCESGQPVKSQGKGEVASTPSDNLDPKLTALEPSKTTGAPIYPGFPKVTEVHHEQKASNSSASQRSLQMFKVTMSRILRLKIQMQEKHEAVMNVKKQTQKGNSKKVVQMEQELQDLQSQLCAEQAQQQARVEQLEKTFQEEEQHLQGLEIAQGEKDLKQQLAQALQEHWALMEELNRSKKDFEAIIQAKNKELEQTKEEKEKMQAQKEEVLSHMNDVLENELQCIICSEYFIEAVTLNCAHSFCSYCINEWMKRKIECPICRKDIKSKTYSLVLDNCINKMVNNLSSEVKERRIVLIRERKAKRLF [R42A]
